Results published in paper PMC6754442, “Structure of Csx1-cOA4 complex reveals the basis of RNA decay in Type III-B CRISPR-Cas” (Nature Communications, 2019).
One block for each compound: values may come before it.

Key:
[1] = biological target: Sulfolobus islandicus Csx1 (Sulfolobus islandicus); assay: SEC-MALS; Superdex 200 Increase 10/300 GL, room temperature, 20 mM Tris pH 8.0, 300 mM NaCl; 50 ul injected at 1.9 mg/ml
SisCsx1 [2] = biological target: T1, SisCsx1 (Saccharolobus islandicus, UniProt F0NE21); assay: native gel shift with […]-labelled cOA4; format: binding
T1 construct: gene SiRe_0884; full-length His-tagged, expressed from pSe-Csx1 in S. islandicus delta-csx1 delta-alpha; 300 kDa hexamer (trimer of dimers); CARF-HTH-HEPN; cOA4 site between two CARF domains; residues printed up to A454
T1 sequence (F0NE21 1-454): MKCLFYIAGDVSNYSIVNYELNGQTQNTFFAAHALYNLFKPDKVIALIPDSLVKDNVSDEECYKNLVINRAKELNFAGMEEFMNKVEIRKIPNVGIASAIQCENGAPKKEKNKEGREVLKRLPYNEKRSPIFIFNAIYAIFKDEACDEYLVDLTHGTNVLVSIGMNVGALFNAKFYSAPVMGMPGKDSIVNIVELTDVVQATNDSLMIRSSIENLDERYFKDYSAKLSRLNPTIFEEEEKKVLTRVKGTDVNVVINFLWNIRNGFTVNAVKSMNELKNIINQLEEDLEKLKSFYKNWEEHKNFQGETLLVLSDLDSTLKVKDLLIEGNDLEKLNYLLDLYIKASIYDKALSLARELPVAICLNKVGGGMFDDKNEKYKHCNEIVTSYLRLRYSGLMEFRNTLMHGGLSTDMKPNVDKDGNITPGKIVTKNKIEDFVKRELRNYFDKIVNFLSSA

SisCsx1 [3] = biological target: T1, SisCsx1; assay: fluorescent dark-RNA cleavage (activation dose response); format: biochemical; conditions: 1-128 nM cOA4, 34 nM SisCsx1, 0.2 µM dark-RNA, 70 °C, 3 min; allosteric activator
[4] = biological target: Sulfolobus islandicus Csx1 I383A/L390D/R391A mutant (Sulfolobus islandicus); assay: SEC-MALS; Superdex 200 Increase 10/300 GL, room temperature, 20 mM Tris pH 8.0, 300 mM NaCl; 50 ul injected at 1.9 mg/ml

- stoichiometry N [1]: 6
Compound: Sulfolobus islandicus Csx1 (enzyme)

- Kd (SisCsx1 [2]): ~0.018 µM
Compound: Nc1ncnc2c1ncn2[C@@H]1O[C@@H]2COP(=O)(O)O[C@H]3[C@@H](O)[C@H](n4cnc5c(N)ncnc54)O[C@@H]3COP(=O)(O)O[C@H]3[C@@H](O)[C@H](n4cnc5c(N)ncnc54)O[C@@H]3COP(=O)(O)O[C@H]3[C@@H](O)[C@H](n4cnc5c(N)ncnc54)O[C@@H]3COP(=O)(O)O[C@H]2[C@H]1O [cOA4]
- fluorescent dark-RNA cleavage (activation dose response) (SisCsx1 [3]): cleavage of a ssRNA substrate was quantified in the presence of increasing amounts of cOA4

- stoichiometry N [4]: 2
Compound: Sulfolobus islandicus Csx1 I383A/L390D/R391A mutant (enzyme)
